Experimental data: patent CN112341541A (INST FOR VIRAL DISEASE CONTROL AND PREVENTION CHINESE …, dated 2021)

Target: T1, 新型冠状病毒S1蛋白 (纯化) (SARS-CoV-2, UniProt P0DTC2 14-685)
T1 construct: domain: S1
Assay: SPR, BIAcore 8000, purified S1 protein coupled to the chip, 1:1 binding fit

B1: 人源抗新冠病毒中和性抗体nCoV-163 全抗体IgG (antibody, V domains shown)
VH: EVQLVESGGGLVQPGGSLRLSCEASEIIVNRNYMNWVRQAPGKGLEWVSIIYPGGSTFYADSVKGRFTISRDNSKNTMYLQMNSLRAEDTAVYYCARSYGDFYVDFWGQGTLVTVSS
VL: EIVLTQSPVTLSLSPGERATLSCRASQSVSSSYLAWYQQKPGQAPRLLIYGASSRATGIPDRFSGSGSGTDFTLTISRLEPEDFAVYYCQQHGRTFGQGTKVEIKR
notes: also called nCoV-163号抗体
  Kd: < 4.88 pM
